Assay results: patent US20170241986A1, “METHODS FOR IDENTIFYING COMPOUNDS THAT ALTER THE ACTIVITY OF IRHOM POLYPEPTIDES AND USE THEREOF” (The Jackson Laboratory, priority 2014, published 2017)

How the values were obtained:
AREG [1] = assay: ELISA of AREG in conditioned medium of transfected 293T cells (in vitro cleavage assay); format: cell-based, human; conditions: 293T cells, co-expression with AREG, absence of MM
From the text: To test whether Rhbdf2^cub, with its short N-terminal domain, could induce secretion of AREG independently of metalloprotease activity, we performed in vitro cleavage assays in the presence or absence of marimastat (MM), a potent broad-spectrum metalloprotease inhibitor that can block both ADAM17- and ADAM10-dependent shedding of substrates. Because of the significant homology between the mouse and human RHBDF2 genes we transfected 293T cells with human AREG either alone or with the human wildtype (HuWt) or human Cub (HuCub) RHBDF2 genes (FIG. 5A), and measured AREG levels in conditioned medium. In the absence of MM, we observed no difference in AREG levels between AREG-expressing and AREG/HuCub co-expressing cells, whereas co-expression of HuWt and AREG reduced AREG levels by ˜60% (FIG. 5B).
Human AREG, HB-EGF and EGF ELISA: Transient transfections were performed in 293T cells seeded in 24-well plates. Using lipofectamine LTX with Plus reagent 16.5 fmol of HuWt or HuCub was co-transfected with 25 ng of AREG or 50 ng of HB-EGF or 200 ng of EGF. The total amount of transfected DNA was made up to equal amount per well with pCMV6-AC-HA vector. After 24 h, DMSO or 10 μM MM in 1 ml of fresh medium replaced the old medium. After 24 h, 100 μl of supernatant was either undiluted (HB-EGF and EGF) or diluted five-fold (AREG) and subjected to ELISA as per the manufacturer's instructions (DY262, DY259, and DY236).

iRhom2 [2] = assay: Cyclohexamide chase with flow cytometry of Flag-tagged iRhom2 protein in COS7 cells; format: cell-based; conditions: 150 μg/ml cyclohexamide chase, within one hour
Description: (§1) Flow cytometry—293T and COS7 cells plated in 6 well plates were transiently transfected with 600 ng of HuWt or HuCub or HuWt p.I186T cDNAs using Lipofectamine™ LTX reagent. After 40 h, cells were incubated in 150 μg/ml of cyclohexamide for 0, 0.5, 1, 2 and 4 h. Following that, cells were fixed in 150 μls of freshly prepared cold 4% PFA at RT for 40 min. Cells were washed once with 2 ml PBST and resuspended in 150 μls of PBST for 15 min at RT in the dark. After another wash, cells were resuspended in 125 μls of PBST containing phycoerythrin-labeled anti-DDK primary antibody (1:50) on ice for 30 min. After a final wash, cells were resuspended in FACS buffer and subjected to flow cytometry analysis (BD FACSCalibur).
Statistical analysis—GraphPad Prism v4 (GraphPad Software, San Diego, Calif.) was used to generate Kaplan-Meier survival curves and calculate protein half-life (One phase exponential decay equation). One-way ANOVA and t-tests determined statistical differences. P value less than 0.05 was considered statistically significant.

iRhom2 [3] = assay: Flow cytometry of protein expression of Flag-tagged constructs in 293T and COS7 cells; format: cell-based, human; conditions: 48 h post transfection
Description: as §1, with “After 40 h, cells were incubated in 150 μg/ml of cyclohexamide for 0, 0.5, 1, 2 and 4 h.” left out

AREG [4] = assay: Co-immunoprecipitation of iRhom2-AREG complex; format: binding, human; conditions: COS7 cell lysates, anti-Flag immunoprecipitation
Description: Immunoprecipitation: 293T and COS7 cell transfections were carried according to the manufacturer's instructions (Life technologies). Cells plated in 6 well plates were treated with 400 μls of Cell Lysis Buffer (Cell Signaling, Danvers, Mass.) containing complete mini protease inhibitors (Roche Applied Science, Indianapolis, Ind.), incubated on ice for 10 min and centrifuged at 14,000 g for 10 min in a cold room. Cell supernatant was incubated overnight with 20 μls of magnetic beads conjugated with Anti-DDK antibody (Origene) in a cold room on a rocking platform. Following overnight incubation, beads/slurry was washed with three times with TBS-T, and protein was collected using 2×SDS-PAGE loading buffer.

B1: HuWt: full-length wildtype human RHBDF2 cDNA (iRhom2) in a C-terminal Flag-tagged expression vector (protein)
chain: MASADKNGGSVSSVSSSRLQSRKPPNLSITIPPPEKETQAPGEQDSMLPEGFQNRRLKKSQPRTWAAHTTACPPSFLPKRKNPAYLKSVSLQEPRSRWQESSEKRPGFRRQASLSQSIRKGAAQWFGVSGDWEGQRQQWQRRSLHHCSMRYGRLKASCQRDLELPSQEAPSFQGTESPKPCKMPKIVDPLARGRAFRHPEEMDRPHAPHPPLTPGVLSLTSFTSVRSGYSHLPRRKRMSVAHMSLQAAAALLKGRSVLDATGQRCRVVKRSFAFPSFLEEDVVDGADTFDSSFFSKEEMSSMPDDVFESPPLSASYFRGIPHSASPVSPDGVQIPLKEYGRAPVPGPRRGKRIASKVKHFAFDRKKRHYGLGVVGNWLNRSYRRSISSTVQRQLESFDSHRPYFTYWLTFVHVIITLLVICTYGIAPVGFAQHVTTQLVLRNKGVYESVKYIQQENFWVGPSSIDLIHLGAKFSPCIRKDGQIEQLVLRERDLERDSGCCVQNDHSGCIQTQRKDCSETLATFVKWQDDTGPPMDKSDLGQKRTSGAVCHQDPRTCEEPASSGAHIWPDDITKWPICTEQARSNHTGFLHMDCEIKGRPCCIGTKGSCEITTREYCEFMHGYFHEEATLCSQVHCLDKVCGLLPFLNPEVPDQFYRLWLSLFLHAGVVHCLVSVVFQMTILRDLEKLAGWHRIAIIFILSGITGNLASAIFLPYRAEVGPAGSQFGLLACLFVELFQSWPLLERPWKAFLNLSAIVLFLFICGLLPWIDNIAHIFGFLSGLLLAFAFLPYITFGTSDKYRKRALILVSLLAFAGLFAALVLWLYIYPINWPWIEHLTCFPFTSRFCEKYELDQVLH
modifications: left off: small tags and cut ends
notes: full-length wildtype human RHBDF2 cDNA (iRhom2) in a C-terminal Flag-tagged expression vector
- reduction of AREG levels in conditioned medium (AREG [1]): ~60%
- reduction in immunoreactivity compared with HuCub or p.I186T (iRhom2 [2]): approximately 50%
- protein expression level compared to HuCub and p.I186T (iRhom2 [3]): significantly lower
- physical complex with AREG (AREG [4]): forms physical complexes with AREG
